This experiment deals with SARS-CoV-2 S protein receptor-binding domain (R319-F541) (SARS-CoV-2, UniProt P0DTC2). The experiment is described as follows: ELISA. To be noted: both partners purified. A general note: ELISA stands for enzyme-linked immunosorbent assay.

Broadly, the EC50 is the concentration needed to bring the measured effect to its halfway point. Lower therefore signals a more potent agent.

B1: sdAb10 (VHH)
VHH: EVQLVESGGGLVQPGGSLRLSCAASGNTFPARTMSWVRQAPGKGLELVASIGPGRSTIYADSVKGRFTISRDNSKNTLYLQMNSLRAEDTAVYYCAVAYTSGLALRGSFSYWGQGTLVTVSS
For the molecule B1, the binding result is on record as “binds”.

B2: sdAb12 (VHH)
VHH: EVQLVESGGGLVQPGGSLRLSCAASGNTFPARTMSWVRQAPGKGLELVASIGRGEITYYADSVKGRFTISRDNSKNTLYLQMNSLRAEDTAVYYCAAPAHGSWMSRRPHIYWGQGTLVTVSS
As to B2, the binding result is given as “binds”.

B3: sdAb39 (VHH)
VHH: EVQLVESGGGLVQPGGSLRLSCAASGNTSTRHPMSWVRQAPGKGLELVASIGRGEITYYADSVKGRFTISRDNSKNTLYLQMNSLRAEDTAVYYCAAFVDFLSRHNSRRPYPHGYWGQGTLVTVSS
As for B3, the EC50 stood at 4 nM.

B4: sdAb38 (VHH)
VHH: EVQLVESGGGLVQPGGSLRLSCAASGNTSTRHPMSWVRQAPGKGLELVASIGRGEITYYADSVKGRFTISRDNSKNTLYLQMNSLRAEDTAVYYCAVCLRSVFVNCHNFAYWGQGTLVTVSS
For B4, the binding result is “binds”.

B5: sdAb42 (VHH)
VHH: EVQLVESGGGLVQPGGSLRLSCAASGNTSTRHPMSWVRQAPGKGLELVASIGRGEITYYADSVKGRFTISRDNSKNTLYLQMNSLRAEDTAVYYCAVDAVFGGRHSHWGQGTLVTVSS
Turning to B5, the binding result was “binds”.

These data come from paper PMC10865538 (BMC Infectious Diseases, 2024).
